Values of other authors in PMC12406711.

Target: PCDH10 ECD (Homo sapiens) (UniProt Q9P2E7)

In the case of PCDH10 ECD (from UniProt Q9P2E7), the Kd is listed as 3.6 µM.
